± gives the standard deviation of the averaged measurements.
Each sequence was assayed on ATP (assay: switch fluorescence ratio, 500 uM ATP over buffer (Cy3 cluster intensity, sum of 5 cycles each) (fold (ratio)); higher = stronger signal-on switching upon ATP binding; sequences stand for … in TCGTCGGCAGCGTCAGATGTGTATAAGAGACAGTTTTTTTTTTTTTTTTTTTTTTTTT…TC). Details: aptamer strand: ATP DNA aptamer (quencher-CACCTGGGGGAGTATTGCGGAGGAAGG + anchor), 100 nM annealed; ATP concentration: 500 uM.
Procedure, shortened: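 Clusters with intensities outside 100-1000 RFU were excluded. The remaining Cy3-labelled switching-strand clusters on a modified Illumina MiSeq flow-cell had been annealed to 100 nM quencher-labelled ATP aptamer and imaged in selection buffer, then after 15 min with 500 uM ATP at 22 °C, for five cycles separated by NaOH stripping and re-annealing. The fluorescence ratio, averaged per switch-domain sequence, is each cluster's summed target-cycle Cy3 intensity over its summed buffer-cycle Cy3 intensity.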
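Also: ATP exposure 15 min at 22 °C before imaging.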

| Sequence | switch fluorescence ratio |
| --- | --- |
| GATTATGATT | 0.971 ± 0.013 |
| GATTATGCGG | 0.9849 ± 0.006 |
| GATTCAAGAT | 0.993 ± 0.03 |
| GATTCATGGG | 1.01 ± 0.0043 |
| GATTCCATAG | 1.06 ± 0.034 |
| GATTCCGGAC | 1.032 ± 0.0054 |
| GATTCCGTTG | 1.04 ± 0.016 |
| GATTCGTATT | 0.9757 ± 0.0047 |
| GATTCTAGGG | 0.9918 ± 0.0017 |
| GATTCTGATT | 0.9756 ± 0.0036 |
| GATTGATGTT | 1.013 ± 0.009 |
| GATTGCAGTG | 0.9786 ± 0.002 |
| GATTGCATCG | 0.9937 ± 0.0013 |
| GATTGGAACG | 0.976 ± 0.013 |
| GATTGGACTA | 1 ± 0.035 |
| GATTGGGGAA | 1.02 ± 0.013 |
| GATTGGGGTA | 0.978 ± 0.038 |
| GATTGGTCTT | 0.976 ± 0.03 |
| GATTGTATCA | 0.99 ± 0.014 |
| GATTGTCTTA | 0.979 ± 0.016 |
| GATTGTGTTA | 1.01 ± 0.043 |
| GATTGTTGGG | 0.984 ± 0.02 |
| GATTGTTGTA | 0.979 ± 0.014 |
| GATTTAAACA | 1.02 ± 0.029 |
| GATTTAAGAG | 0.988 ± 0.029 |

| Sequence | switch fluorescence ratio |
| --- | --- |
| GATTTAAGGG | 0.993 ± 0.018 |
| GATTTAAGTG | 1.018 ± 0.0065 |
| GATTTAATTG | 1.03 ± 0.09 |
| GATTTAGGGG | 0.961 ± 0.042 |
| GATTTAGGTA | 0.968 ± 0.027 |
| GATTTATTGG | 0.983 ± 0.032 |
| GATTTATTTA | 0.993 ± 0.015 |
| GATTTCCCGC | 1.26 ± 0.043 |
| GATTTCGGCG | 0.97 ± 0.03 |
| GATTTGAGGC | 0.987 ± 0.018 |
| GATTTGATGA | 0.9959 ± 0.002 |
| GATTTGGACG | 1.01 ± 0.028 |
| GATTTGGAGG | 0.97361 ± 7.9e-05 |
| GATTTGGGCG | 1.038 ± 0.0054 |
| GATTTGGGGT | 1 ± 0.033 |
| GATTTGTAGG | 1.01 ± 0.0069 |
| GATTTTAATA | 1.02 ± 0.016 |
| GATTTTAGAC | 0.995 ± 0.015 |
| GATTTTCGCG | 1.02 ± 0.037 |
| GATTTTCGCT | 0.971 ± 0.022 |
| GATTTTCTTG | 1.03 ± 0.017 |
| GATTTTGGGG | 1.01 ± 0.029 |
| GATTTTGT | 0.969 ± 0.037 |
| GATTTTGTGC | 1 ± 0.054 |
| GATTTTTAGT | 1.002 ± 0.0016 |

| Sequence | switch fluorescence ratio |
| --- | --- |
| GATTTTTCGT | 0.973 ± 0.01 |
| GATTTTTGTG | 0.992 ± 0.018 |
| GCAAAAATGC | 1.03 ± 0.031 |
| GCAAAATAAA | 1.05 ± 0.12 |
| GCAAACGCAG | 1.05 ± 0.032 |
| GCAAACGGGG | 1.07 ± 0.041 |
| GCAAAGTGGG | 0.9909 ± 0.0077 |
| GCAAATTTTA | 1.02 ± 0.015 |
| GCAACATTCT | 1.03 ± 0.022 |
| GCAACCATTA | 1.03 ± 0.018 |
| GCAAGAATTT | 0.982 ± 0.046 |
| GCAAGACGTT | 1.51 ± 0.045 |
| GCAAGATGAT | 1.17 ± 0.17 |
| GCAAGATTGA | 0.999 ± 0.044 |
| GCAAGCAAGA | 1.18 ± 0.067 |
| GCAAGCTAGG | 1.03 ± 0.017 |
| GCAAGGGGGG | 1.09 ± 0.081 |
| GCAAGGTTAT | 1.01 ± 0.018 |
| GCAAGTAGTT | 1.03 ± 0.053 |
| GCAAGTTTGC | 1.04 ± 0.042 |
| GCAATAGGGT | 1.37 ± 0.037 |
| GCAATAGTGG | 1.25 ± 0.025 |
| GCAATCGTGG | 1.035 ± 0.0042 |
| GCAATTGTTG | 1.021 ± 0.01 |
| GCACAATTAG | 1.04 ± 0.0071 |

| Sequence | switch fluorescence ratio |
| --- | --- |
| GCACCAGGGG | 1.81 ± 0.81 |
| GCACCTTGAG | 1.001 ± 0.0014 |
| GCACGAATGC | 1.06 ± 0.025 |
| GCACGCGTGC | 1.01 ± 0.044 |
| GCACGGGGCA | 1.01 ± 0.023 |
| GCACGGGGGG | 1.03 ± 0.0077 |
| GCACTCTGGG | 0.995 ± 0.029 |
| GCACTGGGGC | 1.01 ± 0.023 |
| GCACTGTGGC | 0.992 ± 0.032 |
| GCACTTGTAA | 1.005 ± 0.0056 |
| GCAGAATGGG | 1.08 ± 0.12 |
| GCAGAGGGGT | 1.04 ± 0.066 |
| GCAGATAGGG | 0.998 ± 0.016 |
| GCAGCCGTGT | 1.03 ± 0.04 |
| GCAGCGGGGG | 1.01 ± 0.027 |
| GCAGCTTTTA | 1.09 ± 0.018 |
| GCAGGAGATT | 1.01 ± 0.032 |
| GCAGGAGTAG | 1.01 ± 0.038 |
| GCAGGCCCGA | 1.009 ± 0.0034 |
| GCAGGCTTGG | 1.012 ± 0.0061 |
| GCAGGGGGTG | 1.11 ± 0.076 |
| GCAGGTAGGG | 0.998 ± 0.039 |
| GCAGGTCTGT | 0.9688 ± 0.0037 |
| GCAGGTGAGG | 1.18 ± 0.044 |
| GCAGGTGGAG | 1.02 ± 0.06 |

Reference: the supplement of paper PMC10126150
